We go through one molecule from patent publication US20150139999A1 (RUTGERS THE STATE UNIVERSITY OF NEW JERSEY, published 2015).

For this assay, the target named is T1, B18-FL (Vaccinia virus strain Western Reserve B18 protein with a FLAG epitope at the C terminus, sec (Vaccinia virus strain Western Reserve, UniProt P25213 20-351)).
T1 construct: mature
Kind of assay: covalent crosslinking in solution, SDS-PAGE.

B1: [^32P]-His-Strep-IFN-λ1-P (secreted human IFN-λ1 with N-terminal His-Strep tag and C-terminal phosphorylation site) (ligand)
chain: HHHHHHPDHWSHPQFEKGPVPTSKPTTTGKGCHIGRFKSLSPQELASFKKARDALEESLKLKNWSCSSPVFPGNWDLRLLQVRERPVALEAELALTLKVLEAAAGPALEDVLDQPLHTLHHILSQLQACIQPQPTAGPRPRGRLHHWLHRLQEAPKKESAGCLEASVTFNLFRLLTRDLKYVADGNLCLRTSTHPESTRRASVA
notes: mature; also called His-Strep-IFN-λ1J-P
B1: the binding result is “no binding”.
